Paper PMC7083227
Where two headings read alike, the source gives them in different places.

Assays:
[1] = target: MOP Vγ9Vδ2 TCR (soluble, biotinylated) (human); test: SPR; BIAcore3000; biotinylated TCRs (2000-3000 RU) captured on streptavidin-coated CM5 chips; BTN IgV domain injected as analyte, 1-200 μM; HBS-EP buffer; equilibrium affinity measurements
[2] = target: Vγ9Vδ1 TCR (soluble, biotinylated) (human); test: as above
[3] = target: MOP Vγ9Vδ2 TCR (soluble, biotinylated) (human); test: as above; remark: listed apart in the source
[4] = target: Vγ9Vδ1 TCR (soluble, biotinylated) (human); test: as above; remark: listed apart in the source
[5] = target: Vγ9Vδ2 TCR (soluble, biotinylated; clone not stated for this experiment); test: SPR; conditions: parent: est. 1.0; read off a plot
[6] = target: Vγ9Vδ2 TCR (soluble, biotinylated; clone not stated for this experiment) (human); test: SPR; BIAcore3000; biotinylated TCRs (2000-3000 RU) captured on streptavidin-coated CM5 chips; BTN IgV domain injected as analyte, 1-200 μM; HBS-EP buffer; equilibrium affinity measurements
[7] = target: Vγ9Vδ2 TCR (soluble, biotinylated; clone not stated for this experiment) (human); test: as above; remark: listed apart in the source
[8] = target: BTN2A1 peptide on (human); test: SPR, equilibrium affinity and Scatchard analysis; representative experiment of Figure 3B; soluble, other
[9] = target: BTN2A1 peptide on (human); test: SPR, equilibrium affinity; biotinylated TCR captured on a streptavidin chip, BTN2A1 IgV as analyte; soluble, other

“BTN2A1 IgV (from UniProt Q7KYR7 27-142) (domain or fragment)” was tested, and the Kd [1] was 49.9 µM, the Kd [2] was 46.6 µM and the Kd [3] was 48.4 µM. For the same substance, the Kd [4] was 47.9 µM.
With BTN2A1 IgV (from UniProt Q7KYR7) Y133A the ratio to parent [5] was 0.8.
With “BTN2A1 IgV K79A (from UniProt Q7KYR7 27-142) (domain or fragment)” the Kd [6] was 100 µM.
“BTN2A1 IgV S72A (from UniProt Q7KYR7 27-142) (domain or fragment)” gave a Kd [7] of 10 to 15 µM and a Kd [6] of 11 to 15 µM.
For Vγ9Vδ2 MOP TCR, the Kd [8] was 48.4 µM and the Kd [9] was 49.9 µM.
